Data published in patent US20210206849A1 (UNIVERSITY OF CONNECTICUT, published 2021).

Tests used:
Experiment in all cases: flow cytometry, biotinylated Skint8-Ig and streptavidin-PE on transfected HEK-293 cells
[1] = target: T1, mouse CD28 on transfected HEK-293 cells (mouse, UniProt P31041 20-218)
T1 construct: whole, on cells
T1 sequence (looked up): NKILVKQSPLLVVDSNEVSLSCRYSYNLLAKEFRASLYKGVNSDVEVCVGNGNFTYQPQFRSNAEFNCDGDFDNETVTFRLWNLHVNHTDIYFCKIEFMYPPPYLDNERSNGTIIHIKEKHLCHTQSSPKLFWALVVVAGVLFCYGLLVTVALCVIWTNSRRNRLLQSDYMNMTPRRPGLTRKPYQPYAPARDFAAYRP
Experimental: (§1) FIG. 15. The expression pattern of the Skint8 putative receptor. (A, B) Spleen cells were harvested from C57BL/6 mice. To obtain activated T cells, the spleen cells were incubated with anti-CD3 (1 μg/ml) and anti-CD28 (0.5 μg/ml) antibodies for 3 days. To obtain activated B cells, monocytes and DCs, the spleen cells were incubated with LPS (10 μg/ml) for 3 days. The freshly harvested and activated immune cells were stained with biotinylated Skint8-Ig or control Ig, followed by streptavidin-PE, as well as anti-CD4, CD8, B220, CD11b, or CD11c antibodies to identify the immune cells. (A) Representative flow cytometric profiles and (B) Statistical analysis showing the binding of Skint8-Ig or control Ig to freshly harvested and activated immune cells. (B) Data are presented as relative fluorescence intensity (RFI) for cell binding of Skint8-Ig versus control Ig. (C) HEK-293 cells were transfected with an expression vector containing the murine PD-, CD28, BTLA, CTLA-4, or ICOS gene and screened for cells stably expressing each gene. The transfected cells were stained with antibody against the respective PD-1, CD28, BTLA, CTLA-4, or ICOS protein (open histograms) or isotype antibody (shaded histograms). Representative flow cytometric profiles showing the expression of each receptor. (D) PD-, CD28, BTLA, CTLA-4, or ICOS gene-transfected HEK-293 cells were stained with biotinylated Skint8-Ig or control Ig, followed by streptavidin-PE. Representative flow cytometric profiles showing the binding of Skint8-Ig (open histograms) or control Ig protein (shaded histograms) to the transfected cells. The data are representative of 3 independent experiments.
(§2) Single cell suspensions of organs were stained with the fluorochrome-conjugated antibodies protein as described (38-41). Direct or indirect staining of fluorochrome-conjugated antibodies included: CD4, CD8, B220, CD11c, CD11b, F4/80, CD69, CD44, CD62L, IFNγ, TNFα, IL-2, IL-10, CD28, CTLA-4, PD-1, BTLA, and ICOS (BioLegend, or BD Biosciences, San Jose, Calif., San Diego, Calif.). Skint8-g, Skint8 IgV-Ig or Skint8 IgC-Ig proteins were biotinylated with sulfo-NHS-LC-Biotin (Pierce) and detected by streptavidin-PE. The samples were analyzed on a FACSCalibur or LSRFortessa X-20 Cell Analyzer (BD Biosciences). Data analysis was done using FlowJo software (Ashland, Oreg.).

[2] = target: T2, mouse ICOS on transfected HEK-293 cells (mouse, UniProt Q9WVS0 21-200)
T2 construct: whole, on cells
T2 sequence (looked up): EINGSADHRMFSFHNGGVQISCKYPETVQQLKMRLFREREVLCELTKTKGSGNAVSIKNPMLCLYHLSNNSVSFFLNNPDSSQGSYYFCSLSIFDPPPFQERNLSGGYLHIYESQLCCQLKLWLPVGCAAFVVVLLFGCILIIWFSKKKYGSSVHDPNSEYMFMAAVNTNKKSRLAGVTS
Experimental: as §1, §2

[3] = target: T3, mouse PD-1 on transfected HEK-293 cells (mouse, UniProt Q02242 25-288)
T3 construct: whole, on cells
T3 sequence (looked up): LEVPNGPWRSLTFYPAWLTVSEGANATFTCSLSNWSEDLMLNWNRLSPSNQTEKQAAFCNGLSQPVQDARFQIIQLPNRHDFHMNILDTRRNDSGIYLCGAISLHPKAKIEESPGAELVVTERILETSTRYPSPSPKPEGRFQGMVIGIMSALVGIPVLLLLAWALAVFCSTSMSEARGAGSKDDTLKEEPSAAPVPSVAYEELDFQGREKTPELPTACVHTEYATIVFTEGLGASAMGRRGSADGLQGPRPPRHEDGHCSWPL
Experimental: as §1, §2

[4] = target: T4, mouse CTLA-4 on transfected HEK-293 cells (mouse, UniProt P09793 36-223)
T4 construct: whole, on cells
Experimental: as §1, §2

[5] = target: T5, mouse BTLA on transfected HEK-293 cells (mouse, UniProt Q7TSA3 30-306)
T5 construct: whole, on cells
T5 sequence (looked up): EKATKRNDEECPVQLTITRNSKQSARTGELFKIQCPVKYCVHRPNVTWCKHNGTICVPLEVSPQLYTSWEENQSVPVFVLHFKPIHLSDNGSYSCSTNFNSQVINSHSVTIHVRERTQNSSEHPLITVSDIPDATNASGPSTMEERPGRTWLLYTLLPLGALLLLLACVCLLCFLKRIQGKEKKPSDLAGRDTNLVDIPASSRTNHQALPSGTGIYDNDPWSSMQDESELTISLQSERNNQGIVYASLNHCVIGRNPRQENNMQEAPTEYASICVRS
Experimental: as §1, §2

Measured: binding result

B1: Mouse Skint8-Ig fusion protein (Fc fusion)
chain: EKLRVTTPTRHLLARVGGQAELSCQVIPPHSVMHMEVRWFRSGHSQPVYLYRGGHKMSEEAAPEYANRTEFVKEAIGEGKVSLRIYNINILDDGPYQCSFNDSGFIDVAIMNLNVTAVGLETEIHVQAPDADGVMVECNTGGWFPRPQMEWRDSKGATLPHSLKSYSQDEARFFHMKMTLLLTNMSHGSIICCISNPVTGEEKQTSIIPRGPTIKPCPPCKCPAPNLLGGPSVFIFPPKIKDVLMISLSPIVTCVVVDVSEDDPDVQISWFVNNVEVHTAQTQTHREDYNSTLRVVSALPIQHQDWMSGKEFKCKVNNKDLPAPIERTISKPKGSVRAPQVYVLPPPEEEMTKKQVTLTCMVTDFMPEDIYVEWTNNGKTELNYKNTEPVLDSDGSYFMYSKLRVEKKNWVERNSYSCSVVHEGLHNHHTTKSFSRTPGK
modifications: biotinylated with sulfo-NHS-LC-Biotin in the flow cytometry assays (sites not given)
notes: Made in HEK-293 cells; also called Skint8-IgG Fc
no binding: [1] | [2] | [3] | [4] | [5]
